Patent publication WO2010106812A1

Molecular target: soluble recombinant human IL-6 receptor (human) (UniProt P08887)
Assay: Biacore T100, biotinylated SR344 immobilised via streptavidin as model of membrane-type IL-6 receptor, dissociation at pH 7.4 and pH 5.8, 37 degrees C

Chain of soluble recombinant human IL-6 receptor (human) (P08887 20-344, form in doubt): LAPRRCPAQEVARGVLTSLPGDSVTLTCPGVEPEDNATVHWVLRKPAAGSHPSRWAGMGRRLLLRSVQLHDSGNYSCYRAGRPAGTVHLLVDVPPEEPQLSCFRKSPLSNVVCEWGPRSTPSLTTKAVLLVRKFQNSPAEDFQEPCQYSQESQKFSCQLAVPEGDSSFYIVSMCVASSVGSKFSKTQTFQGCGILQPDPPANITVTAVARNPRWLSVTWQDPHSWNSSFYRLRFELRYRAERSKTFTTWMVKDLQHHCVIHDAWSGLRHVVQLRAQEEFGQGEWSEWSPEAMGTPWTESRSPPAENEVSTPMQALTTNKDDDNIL

B1: Fv3-M73 (antibody, V domains shown)
VH: QVQLQESGPGLVKPSETLSLTCAVSGHSISHDHAWSWVRQPPGEGLEWIGFISYSGITNYNPTLQGRVTISRDNSKNTLYLQMNSLRAEDTAVYYCARSLARTTAMDYWGEGTLVTVSS
VL: DIQMTQSPSSLSASVGDSVTITCQASRDISSHLNWYQQKPGKAPELLIYYGSHLLSGVPSRFSGSGSGTDFTFTISSLEAEDAATYYCGQGNRLPYTFGQGTKVEIER
  fold improvement of the pH dependency of the dissociation rate (pH 5.8 against pH 7.4) over TOCILIZUMAB: 11 times

B2: Fv4-M73 (antibody, V domains shown)
VH: QVQLQESGPGLVKPSETLSLTCAVSGHSISHDHAWSWVRQPPGEGLEWIGFISYSGITNYNPSLQGRVTISRDNSKNTLYLQMNSLRAEDTAVYYCARSLARTTAMDYWGEGTLVTVSS
VL: DIQMTQSPSSLSASVGDSVTITCQASTDISSHLNWYQQKPGKAPELLIYYGSHLLSGVPSRFSGSGSGTDFTFTISSLEAEDAATYYCGQGNRLPYTFGQGTKVEIER
  fold improvement of the pH dependency of the dissociation rate (pH 5.8 against pH 7.4) over TOCILIZUMAB: 10 times

B3: H3pI/L73 (antibody, human IgG1, kappa, V domains shown)
VH: QVQLQESGPGLVKPSETLSLTCAVSGHSISHDHAHSWVRQPPGEGLEWIGYISYSGITNYNPSLKGRVTISRDTSKNQFSLKLSSVTAADTAAYYCARSLARTTAMDYWGEGTLVTVSS
VL: DIQMTQSPSSLSASVGDSVTITCQASQHISSHLNWYQQKPGKAPELLIYYGSHLHSGVPSRFSGSGSGTDFTFTISSLEAEDAATYYCGQGNRLPYTFGQGTKVEIER
  fold increase of the pH dependence of the dissociation rate (pH 5.8 against pH 7.4) over TOCILIZUMAB: 2.6 times
